From patent US9587033 come the findings set out here.

In one data set the target is Grb2 (UniProt P62993).

Chain of Grb2, P62993 (P62993 whole entry, looked up): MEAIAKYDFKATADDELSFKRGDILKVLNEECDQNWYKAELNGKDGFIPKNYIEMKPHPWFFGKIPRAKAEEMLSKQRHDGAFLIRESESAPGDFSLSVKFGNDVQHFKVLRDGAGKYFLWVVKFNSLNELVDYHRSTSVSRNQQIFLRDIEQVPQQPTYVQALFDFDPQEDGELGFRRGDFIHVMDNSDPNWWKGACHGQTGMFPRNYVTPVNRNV

As for “60 kDa truncated Tnk1-C17ORF61 fusion protein (tTnk1)”, the “in vitro PTK activity assay (Y-phosphorylation of Grb2)” value with Grb2 is “The t-Tnk1 showed none or weak Y-phosphorylation of Grb2”.

B1: full length Tnk1 (72 kDa) (protein)
chain: MLPEAGSLWLLKLLRDIQLAQFYWPILEELNVTRPEHFDFVKPEDLDGIGMGRPAQRRLSEALKRLRSGPKSKNWVYKILGGFAPEHKEPTLPSDSPRHLPEPEGGLKCLIPEGAVCRGELLGSGCFGVVHRGLWTLPSGKSVPVAVKSLRVGPEGPMGTELGDFLREVSVMMNLEHPHVLRLHGLVLGQPLQMVMELAPLGSLHARLTAPAPTPPLLVALLCLFLRQLAGAMAYLGARGLVHRDLATRNLLLASPRTIKVADFGLVRPLGGARGRYVMGGPRPIPYAWCAPESLRHGAFSSASDVWMFGVTLWEMFSGGEEPWAGVPPYLILQRLEDRARLPRPPLCSRALYSLALRCWAPHPADRPSFSHLEGLLQEAGPSEACCVRDVTEPGALRMETGDPITVIEGSSSFHSPDSTIWKGQNGRTFKVGSFPASAVTLADAGGLPATRPVHRGTPARGDQHPGSIDGDRKKANLWDAPPARGQRRNMPLERMKGISRSLESVLSLGPRPTGGGSSPPEIRQARAVPQGPPGLPPRPPLSSSSPQPSQPSRERLPWPKRKPPHNHPMGMPGARKAAALSGGLLSDPELQRKIMEVELSVHGVTHQECQTALGATGGDVVSAIRNLKVDQLFHLSSRSRADCWRILEHYQWDLSAASRYVLARP
Consider B1, for which, in the data set with Grb2, P62993, the “in vitro PTK activity assay (Y-phosphorylation of Grb2)” value is “Tnk1 from T47D or K562 Y-phosphorylated Grb2”.
